From paper PMC3080791

Target: α-dystroglycan isolated from skeletal muscle (UniProt Q28685)
Test: ELISA

Sequence of UniProt Q28685 (Q28685 30-653): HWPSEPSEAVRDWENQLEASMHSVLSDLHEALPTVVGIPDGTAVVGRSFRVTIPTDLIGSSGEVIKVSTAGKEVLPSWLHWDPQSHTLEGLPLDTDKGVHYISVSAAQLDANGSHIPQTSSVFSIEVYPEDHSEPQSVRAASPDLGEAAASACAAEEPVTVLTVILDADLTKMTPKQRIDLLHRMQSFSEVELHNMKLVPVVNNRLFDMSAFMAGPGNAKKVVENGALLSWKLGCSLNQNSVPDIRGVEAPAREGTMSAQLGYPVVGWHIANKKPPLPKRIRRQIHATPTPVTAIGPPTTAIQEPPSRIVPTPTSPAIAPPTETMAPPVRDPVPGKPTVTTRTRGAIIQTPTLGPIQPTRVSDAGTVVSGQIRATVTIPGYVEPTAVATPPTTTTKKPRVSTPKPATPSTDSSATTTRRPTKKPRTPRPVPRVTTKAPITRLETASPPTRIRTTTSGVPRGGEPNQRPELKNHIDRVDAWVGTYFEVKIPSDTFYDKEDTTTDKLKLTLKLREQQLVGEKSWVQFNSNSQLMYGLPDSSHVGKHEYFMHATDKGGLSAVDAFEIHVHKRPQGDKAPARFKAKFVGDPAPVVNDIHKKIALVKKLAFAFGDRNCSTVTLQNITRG

LCMV WE54 envelope glycoprotein displayed on FIV lentiviral vector particles (FIV-WE54) (complex)
OD relative to wild-type LCMV WE54: 0.33
